Source: publication PMC4967898, “Peptides interfering with protein-protein interactions in the ethylene signaling pathway delay tomato fruit ripening” (Scientific Reports, 2016)

Target: T1, LeETR1 (Solanum lycopersicum, UniProt Q41342)
T1 construct: made in house; host or cells: E. coli
T1 sequence (Q41342 1-754): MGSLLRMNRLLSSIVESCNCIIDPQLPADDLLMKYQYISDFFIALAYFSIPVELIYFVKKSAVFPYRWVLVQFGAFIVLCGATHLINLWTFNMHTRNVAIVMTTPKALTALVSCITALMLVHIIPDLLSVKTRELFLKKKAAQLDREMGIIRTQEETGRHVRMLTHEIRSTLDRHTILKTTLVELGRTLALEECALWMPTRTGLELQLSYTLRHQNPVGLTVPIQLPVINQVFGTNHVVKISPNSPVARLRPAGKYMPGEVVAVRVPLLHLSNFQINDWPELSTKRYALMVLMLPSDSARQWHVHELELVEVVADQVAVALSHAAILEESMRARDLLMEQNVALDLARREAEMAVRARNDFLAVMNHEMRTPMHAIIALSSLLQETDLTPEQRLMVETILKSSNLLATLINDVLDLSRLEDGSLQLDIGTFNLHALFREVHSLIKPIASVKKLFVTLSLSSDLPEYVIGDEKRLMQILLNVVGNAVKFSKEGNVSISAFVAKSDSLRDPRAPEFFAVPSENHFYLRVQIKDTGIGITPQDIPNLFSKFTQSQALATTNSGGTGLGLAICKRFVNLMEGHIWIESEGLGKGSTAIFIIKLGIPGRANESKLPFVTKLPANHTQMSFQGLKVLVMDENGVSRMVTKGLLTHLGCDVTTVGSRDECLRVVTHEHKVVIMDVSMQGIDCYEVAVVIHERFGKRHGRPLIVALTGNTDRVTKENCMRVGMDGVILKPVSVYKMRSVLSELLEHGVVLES
Assay: MST interaction of labeled LeETR1 with LeEIN2^462–1316
Type: binding, tomato
Conditions: 0.4 μM LeETR1 labeled with Alexa Fluor 488 succinimidyl-ester, LeEIN2^462–1316 4.69 nM to 9.6 μM, 50 mM Tris-HCl pH 8.0, 300 mM NaCl, 0.015% (w/v) Fos-Choline-16, 80% MST power, independent triplicates, mean +/− standard deviation, read-out: Kd of LeEIN2-LeETR1 complex formation
Description: Protein-protein interaction of LeEIN2 and LeETR1 was studied by microscale thermophoresis (MST). Thermophoresis, the motion of molecules in a temperature gradient, strongly depends on the hydration-shell, the charge and the size of the moving molecules. Typically, at least one of these features changes when a protein-protein interaction occurs. Thus, MST represents a highly sensitive and reliable tool to study protein-protein interactions. By recording the motion of a fluorescence-labeled molecule in the presence of increasing concentrations of a putative binding partner, the dissociation constant (Kd) reflecting the affinity of the interaction and the stability of the complex can be calculated. Recombinant LeETR1 was labeled with the fluorescent dye Alexa Fluor 488 and 0.4 μM of labeled LeETR1 was mixed with increasing concentrations of LeEIN2^462–1316 until saturation was reached (9.6 μM as final concentration). Binding of receptor and EIN2 was observed as a clear and strong response in the MST signal. […]
Figure 1 Interaction studies of tomato ETR1 and EIN2 via MST. […] Normalized fluorescence as MST signal is plotted against increasing LeEIN2^462–1316 (●) concentrations as described. […]

B1: LeEIN2^462–1316: recombinant C-terminal part of tomato EIN2, expressed in E. coli (protein)
chain: LKSASSRFDAQAFLQTHVPEPYSECNQLGASNAMFGLVEGSSQKQEGAFHVEKSLVSHPDLSTKDPDQLLPESLLDFEKVHQLATIDESKSETTFSAPAVVHPEVPVSAGASPSVKSVCNEVSGVVSVDTSVFNTETVDVAEKTLRIEGDMANDRDDGDSWEEPEEAIKGVSENAQSFISDGPGSYKSLSGKLEDTGSGTGSLSRLAGLGRAARRQLTEALNEFWGQLFDYHGVATAEAKSKKLDIILGLDSKMNPKPAPASLKVESSAYIPSGSARIPEPLINSHVYSPKQQFASNIVDSAYRVPKEPSSTSSMWSNHMKLVGAYVQSSNSNMLDSGERRYSSMRIPATSAGYDQQPATVHGYQITAYLNQLAKERGSDYLNGQLESPSPRSVSSLTSNYAEPLARVSGQKPQSGVSSRAPPGFGNVPVGRNNSMQPTNTTSVDHSSTETAESVAGSANSKKYYSLPDISGRYVPRQDSIVSDARAQWYNSMGFGQSGGRSTYEQAYMSGSLRAGGPQRYEHSPKVCRDAFSLQYSSNSGTGSLWSRQPFEQFGVAGKPDVGSGDHGTVLSSSAQESTSTVDLEAKLLQSFRSCIVKLLKLEGSEWLFRQDDGADEDLIGRIAAREKFLYEAETREISRLTNIGESHFSSNRKPGSAPKPEEMDYTKFLVMSVPHCGEGCVWKVDLIISFGVWCIHRILELSLMESRPELWGKYTYVLNRLQGIVDLAFSKPHSPTSHCFCLQIPAGRQQKASPPPISNGNLPPQAKQGRGKCTTAAMLLEMIKDVETAISCRKGRTGTAAGDVAFPKGKENLASVLKRYKRRLSNKPVGNQEVAGVAGPRKVTLSASSPPFVL
modifications: unlabeled in the MST titration of labeled LeETR1; Alexa Fluor 488 label in the reverse MST titration; Alexa Fluor 568 succinimidyl-ester label in the FRET assay; left off: His10, end not stated, state
notes: recombinant C-terminal part of tomato EIN2, expressed in E. coli
Kd: 619 nM
